Source: IntAct's records for PubMed 19135888

B1: Cell division control protein 13 (Saccharomyces cerevisiae), P32797 (parent)
chain: MDTLEEPECPPHKNRIFVSSSKDFEGYPSKAIVPVQFVALLTSIHLTETKCLLGFSNFERRGDQSQEDQYLIKLKFKDRGSERLARITISLLCQYFDIELPDLDSDSGASPTVILRDIHLERLCFSSCKALYVSKHGNYTLFLEDIKPLDLVSVISTISTKSTNSSKHSSSELISECDLNNSLVDIFNNLIEMNRDEKNRFKFVKLIHYDIELKKFVQDQQKVLSQKSKAAAINPFFVPNRLGIPYIESQNEFNSQLMTLNVDEPTTDISNMGEEMHDSADPIEDSDSSTTSSTGKYFSSKSYIQSQTPERKTSVPNNWHDDDSGSKRKRKLSFHSPNASSIRKAISYEQLSLASVGSVERLEGKIVGMNPPQFASINEFKYCTLKLYFTQLLPNVPDKVLVPGVNCIEIVIPTRERICELFGVLNCQSDKISDILLLEKPDRISVEVERILWDNDKTASPGMAVWSLKNISTDTQAQAQVQVPAQSSASIDPSRTRMSKMARKDPTIEFCQLGLDTFETKYITMFGMLVSCSFDKPAFISFVFSDFTKNDIVQNYLYDRYLIDYENKLELNEGFKAIMYKNQFETFDSKLRKIFNNGLRDLQNGRDENLSQYGIVCKMNIKVKMYNGKLNAIVRECEPVPHSQISSIASPSQCEHLRLFYQRAFKRIGESAISRYFEEYRRFFPIHRNGSHLAKLRFDEVKHEPKKSPTTPALAEHIPDLNADVSSFDVKFTDISSLLDSSARLPRPQQTHKSNTLYSCEGRIIAIEYHASDLCFHITNELPLLQTRGLAPERVLQLHIITSKNFAYFFNRSSAYLQRQPLEEKYTQLAQFLGHSFKFNITSSLTLFPDTTVALQIWCPIECTFRELQQQLAHPKVAAAPDSGSLDCAINATVNPLRLLAAQNGVTVKKEEDNDDDAGAVPTS

Variants of: B1
Conditions: with cdk1_yeast CDC28, P00546
Chain of cdk1_yeast CDC28, P00546 (P00546 whole entry, looked up): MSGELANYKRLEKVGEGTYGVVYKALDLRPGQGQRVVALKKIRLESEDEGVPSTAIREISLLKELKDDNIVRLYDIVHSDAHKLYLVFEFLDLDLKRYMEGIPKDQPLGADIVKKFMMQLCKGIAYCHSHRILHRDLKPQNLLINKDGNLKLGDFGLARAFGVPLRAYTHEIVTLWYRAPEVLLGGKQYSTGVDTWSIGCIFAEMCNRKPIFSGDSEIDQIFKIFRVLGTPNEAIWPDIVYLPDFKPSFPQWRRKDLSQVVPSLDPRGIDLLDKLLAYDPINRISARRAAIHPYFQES

Variant	effect of a mutation on the interaction
T308A;S336A	disrupting interaction
T308A	decreasing interaction
